The source of these data is patent US20040214275.

The target of series [1] is von Willebrand factor purified from human plasma cryoprecipitate (UniProt P04275).
For series [2], the target named is von Willebrand factor purified from human plasma cryoprecipitate, P04275.

Take “W897stop variant of the vWF-cleaving protease (lacking the region between the C-terminus and position W897)”: the “vWF-cleaving activity (qualitative)” value in series [1] was “a variant lacking a region between the C-terminus and the position W897 was found to have activity, although it was the result of qualitative analysis”.

B1: vWF-cleaving protease derived from human plasma (protein)
chain: AAGGILHLELLVAVGPDVFQAHQEDTERYVLTNLNIGAELLRDPSLGAQFRVHLVKMVILTEPEGAPNITANLTSSLLSVCGWSQTINPEDDTDPGHADLVLYITRFDLELPDGNRQVRGVTQLGGACSPTWSCLITEDTGFDLGVTIAHEIGHSFGLEHDGAPGSGCGPSGHVMASDGAAPRAGLAWSPCSRRQLLSLLSAGRARCVWDPPRPQPGSAGHPPDAQPGLYYSANEQCRVAFGPKAVACTFAREHLDMCQALSCHTDPLDQSSCSRLLVPLLDGTECGVEKWCSKGRCRSLVELTPIAAVHGRWSSWGPRSPCSRSCGGGVVTRRRQCNNPRPAFGGRACVGADLQAEMCNTQACEKTQLEFMSQQCARTDGQPLRSSPGGASFYHWGAAVPHSQGDALCRHMCRAIGESFIMKRGDSFLDGTRCMPSGPREDGTLSLCVSGSCRTFGCDGRMDSQQVWDRCQVCGGDNSTCSPRKGSFTAGRAREYVTFLTVTPNLTSVYIANHRPLFTHLAVRIGGRYVVAGKMSISPNTTYPSLLEDGRVEYRVALTEDRLPRLEEIRIWGPLQEDADIQVYRRYGEEYGNLTRPDITFTYFQPKPRQAWVWAAVRGPCSVSCGAGLRWVNYSCLDQARKELVETVQCQGSQQPPAWPEACVLEPCPPYWAVGDFGPCSASCGGGLRERPVRCVEAQGSLLKTLPPARCRAGAQQPAVALETCNPQPCPARWEVSEPSSCTSAGGAGLALENETCVPGADGLEAPVTEGPGSVDEKLPAPEPCVGMSCPPGWGHLDATSAGEKAPSPWGSIRTGAQAAHVWTPAAGSCSVSCGRGLMELRFLCMDSALRVPVQEELCGLASKPGSRREVCQAVPCPARWQYKLAACSVSCGRGVVRRILYCARAHGEDDGEEILLDTQCQGLPRPEPQEACSLEPCPPRWKVMSLGPCSASCGLGTARRSVACVQLDQGQDVEVDEAACAALVRPEASVPCLIADCTYRWHVGTWMECSVSCGDGIQRRRDTCLGPQAQAPVPADFCQHLPKPVTVRGCWAGPCVGQGTPSLVPHEEAAAPGRTTATPAGASLEWSQARGLLFSPAPQPRRLLPGPQENSVQSSACGRQHLEPTGTIDMRGPGQADCAVAIGRPLGEVVTLRVLESSLNCSAGDMLLLWGRLTWRKMCRKLLDMTFSSKTNTLVVRQRCGRPGGGVLLRYGSQLAPETFYRECDMQLFGPWGEIVSPSLSPATSNAGGCRLFINVAPHARIAIHALATNMGAGTEGANASYILIRDTHSLRTTAFHGQQVLYWESESSQAEMEFSEGFLKAQASLRGQYWTLQSWVPEMQDPQSWKGKEGT
As to B1, in series [2], the vWF-cleaving activity result is “activity derived from the cryoprecipitate and the FI paste were found to cleave the peptide bond between residues Tyr 842 and Met 843”.
